Measured values from US20240360189A1.

Target: SLAMF7 (CS1, CD319, CRACC) on NK92MI cells (human) (UniProt Q9NQ25)
Test: flow cytometry, cross-linking of violet-stained NK92MI cells with PKH26-stained P. aeruginosa RP73; controls without molecule 0.29 and 0.31

B1: BiKE B′: ELO scFv [(RTX VL 10-first amino-acids/ELO (VL-VH)] anti-SLAMF7.C4bpβ.scFv (VL-VH) anti-Psl.FLAG (bispecific antibody, not shown: small tags and cut ends)
chain: RSQIVLSQSPAILSASVGDRVTITCKASQDVGIAVAWYQQKPGKVPKLLIYWASTRHTGVPDRFSGSGSGTDFTLTISSLQPEDVATYYCQQYSSYPYTFGQGTKVEIKGGSSRSSSSGGGGSGGGGEVQLVESGGGLVQPGGSLRLSCAASGFDFSRYWMSWVRQAPGKGLEWIGEINPDSSTINYAPSLKDKFIISRDNAKNSLYLQMNSLRAEDTAVYYCARPDGNYWYFDVWGQGTLVTVSSASGGGGSSGGGGSSGGGGSIQEAPKPECEKALLAFQESKNLCEAMENFMQQLKESGMTMEELKYSLELKKAELKAKLLSGGGGSSGGGGSSGGGGSDIQLTQSPSSLSASVGDRVTITCRASQSIRSHLNWYQQKPGKAPKLLIYGASNLQSGVPSRFSGSGSGTDFTLTISSLQPEDFATYYCQQSTGAWNWFGCGTKVEIKGGGGSGGGGSGGGGSGGGGSQVQLQESGPGLVKPSETLSLTCTVSGGSISPYYWTWIRQPPGKCLELIGYIHSSGYTDYNPSLKSRVTISGDTSKKQFSLKLSSVTAADTAVYYCARADWDRLRALDIWGQGTMVTVSS
modifications: Covalent homodimer through the cysteines of the C4bp beta fragment; one chain is given.
With B1 the % colocalization (violet+PKH26+) was 1.85%.
